Results on one substance are retold here after IntAct's records for PubMed 19197237.

This assay has as its target pex14_human PEX14 (UniProt O75381).
Sequence of UniProt O75381 (O75381 whole entry): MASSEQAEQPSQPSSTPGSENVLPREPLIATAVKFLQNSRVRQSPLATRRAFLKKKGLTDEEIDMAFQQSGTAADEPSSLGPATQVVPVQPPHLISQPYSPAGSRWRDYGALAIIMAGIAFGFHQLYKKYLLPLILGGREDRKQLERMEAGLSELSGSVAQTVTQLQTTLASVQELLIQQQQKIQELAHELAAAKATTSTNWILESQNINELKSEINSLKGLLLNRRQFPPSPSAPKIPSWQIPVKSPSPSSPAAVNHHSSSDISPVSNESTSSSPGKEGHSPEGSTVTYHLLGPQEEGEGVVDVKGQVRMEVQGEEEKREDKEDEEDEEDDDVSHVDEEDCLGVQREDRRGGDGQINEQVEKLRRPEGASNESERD

On to “Peroxisomal targeting signal 1 receptor (Homo sapiens) (from UniProt P50542) E121D”, for which the “effect of a mutation on the interaction” value was “disrupting interaction”.
